Data taken from patent publication US20230212587A1, “Mutant Hydroxyphenylpyruvate Dioxygenase Polypeptide, Encoding Gene Thereof and Use Therefor” (Beijing Dabeinong Biotechnology Co., Ltd., priority 2019, published 2023).

B1: AsHPPDm-F372A-A110: Avena sativa HPPD with F372A and deletion of alanine at position 110, SEQ ID NO: 412 (protein)
chain: MPPTPATATGAAAAAVTPEHAARSFPRVVRVNPRSDRFPVLSFHHVELWCADAASAAGRFSFALGAPLAARSDLSTGNSAHASLLLRSGALAFLFTAPYAPPPQEAATAATASIPSFSADAARTFAAAHGLAVRSVGVRVADAAEAFRVSVAGGARPAFAPADLGHGFGLAEVELYGDVVLRFVSYPDETDLPFLPGFERVSSPGAVDYGLTRFDHVVGNVPEMAPVIDYMKGFLGFHEFAEFTAEDVGTTESGLNSVVLANNSEAVLLPLNEPVHGTKRRSQIQTYLEYHGGPGVQHIALASNDVLRTLREMRARTPMGGFEFMAPPQAKYYEGVRRIAGDVLSEEQIKECQELGVLVDRDDQGVLLQIATKPVGDRPTFFLEMIQRIGCMEKDEVGQEYQKGGCGGFGKGNFSELFKSIEDYEKSLEVKQSVVAQKS
modifications: AsHPPDm-F372A-A110 Amino Acid Sequence
B2: ZmHPPDm-F372A-02: Zea mays HPPD mutant F372A, SEQ ID NO: 20 (protein)
chain: MPPTPTAAAAGAAVAAASAAEQAAFRLVGHRNFVRFNPRSDRFHTLAFHHVELWCADAASAAGRFSFGLGAPLAARSDLSTGNSAHASLLLRSGSLSFLFTAPYAHGADAATAALPSFSAAAARRFAADHGLAVRAVALRVADAEEAFRTSVAAGARPAFGPVDLGRGFRLAEVELYGDVVLRYVSYPDGAAGEPFLPGFEGVASPGAADYGLSRFDHIVGNVPELAPAAAYFAGFTGFHEFAEFTTEDVGTAESGLNSMVLANNSENVLLPLNEPVHGTKRRSQIQTFLDHHGGPGVQHMALASDDVLRTLREMQARSAMGGFEFMAPPTSDYYDGVRRRAGDVLTEAQIKECQELGVLVDRDDQGVLLQIAPKPVGDRPTLFLEIIQRIGCMERDEKGQEYQKGGCGGFGKGNFSQLFKSIEDYEKSLEAMQAAAAATAQGS
modifications: ZmHPPDm-F372A Amino Acid Sequence
B3: AsHPPDm-F372A-02: Avena sativa HPPD mutant F372A, SEQ ID NO: 4; gene SEQ ID NO: 6 (protein)
chain: MPPTPATATGAAAAAVTPEHAARSFPRVVRVNPRSDRFPVLSFHHVELWCADAASAAGRFSFALGAPLAARSDLSTGNSAHASLLLRSGALAFLFTAPYAPPPQEAATAAATASIPSFSADAARTFAAAHGLAVRSVGVRVADAAEAFRVSVAGGARPAFAPADLGHGFGLAEVELYGDVVLRFVSYPDETDLPFLPGFERVSSPGAVDYGLTRFDHVVGNVPEMAPVIDYMKGFLGFHEFAEFTAEDVGTTESGLNSVVLANNSEAVLLPLNEPVHGTKRRSQIQTYLEYHGGPGVQHIALASNDVLRTLREMRARTPMGGFEFMAPPQAKYYEGVRRIAGDVLSEEQIKECQELGVLVDRDDQGVLLQIATKPVGDRPTFFLEMIQRIGCMEKDEVGQEYQKGGCGGFGKGNFSELFKSIEDYEKSLEVKQSVVAQKS
modifications: AsHPPDm-F372A Amido Acid Sequence
B4: PfHPPDm-F372A-02: Pseudomonas fluorescens HPPD mutant F372A, SEQ ID NO: 30 (protein)
chain: MADLYENPMGLMGFEFIEFASPTPGTLEPIFEIMGFTKVATHRSKNVHLYRQGEINLILNNEPNSIASYFAAEHGPSVCGMAFRVKDSQKAYNRALELGAQPIHIDTGPMELNLPAIKGIGGAPLYLIDRFGEGSSIYDIDFVYLEGVERNPVGAGLKVIDHLTHNVYRGRMVYWANFYEKLFNFREARYFDIKGEYTGLTSKAMSAPDGMIRIPLNEESSKGAGQIEEFLMQFNGEGIQHVAFLTDDLVKTWDALKKIGMRFMTAPPDTYYEMLEGRLPDHGEPVDQLQARGILLDGSSVEGDKRLLLQIASETLMGPVFFEFIQRKGDDGFGEGNFKALFESIERDQVRRGVLTAD
modifications: PfHPPDm-F372A Amino Acid Sequence

Legend:
[1] = test system: rice T1 plants; test: Herbicide tolerance of transgenic rice T1 plants to topramezone; format: in vivo; conditions: topramezone 50 and 100 g ai/ha, 7 DAT, compared to wild-type
From the text: (§1) The Arabidopsisthaliana T1 plants into which the AsHPPDm-F372A-02 nucleotide sequence was introduced, Arabidopsis thaliana T1 plants into which the AsHPPD-02 nucleotide sequence was introduced and wild-type Arabidopsisthaliana plants (18 days after sowing) were sprayed with topramezone at four different concentrations, i.e., 25 g ai/ha (one-fold field concentration, 1×), 50 g ai/ha (two-fold field concentration, 2×), 100 g ai/ha (four-fold field concentration, 4×) and 0 g ai/ha (water, 0×) to determine the tolerance of Arabidopsisthaliana to the herbicide. The degree of damage caused by the herbicide was measured for each plant according to the proportion of bleached leaf area (the proportion of bleached leaf area=bleached leaf area/total leaf area×100%) 7 days after spraying (7 DAT): the case where there is basically no bleached phenotype is defined as grade 0, the case where the proportion of bleached leaf area is less than 50% is defined as grade 1,the case where the proportion of bleached leaf area is more than 50% is defined as grade 2, and the case where the proportion of bleached leaf area is 100% grade is defined as grade 3.
The rice T1 plants into which the AsHPPDm-F372A-02 nucleotide sequence was introduced, rice T1 plants into which the AsHPPDm-F372A-A110 nucleotide sequence was introduced, rice T1 plants into which the ZmHPPDm-F372A-02 nucleotide sequence was introduced, rice T1 plants into which the PfHPPDm-F372A-02 nucleotide sequence was introduced and wild-type rice plants (V3-V4 at seedling stage) were sprayed with topramezone at two different concentrations respectively, i.e. 50 g ai/ha (2-fold field concentration, 2 ×) and 100 g ai/ha (4-fold field concentration, 4 ×) to detect the herbicide tolerance of rice plants. According to the method in point 6 of Example 1, after 7 days of spraying (7 DAT), the damage degree of each plant by the herbicide was statistically analyzed, and the scoring and resistance evaluation were carried out accordingly. The rice T1 plants into which AsHPPDm-F372A-02 nucleotide sequence was introduced were of two strains in total (S12 and S13), rice T1 plants into which AsHPPDm-F372A-A1 10 nucleotide sequence was introduced were of two strains in total (S14 and S15), rice T1 plants into which ZmHPPDm-F372A-02 nucleotide sequence was introduced were of two strains in total (S16 and S17), rice T1 plants into which PfHPPDm-F372A-02 nucleotide sequence was introduced were of two strains in total (S18 and S19), and the wild-type rice plants were of one strain in total (CK2); and 8 plants were selected from each strain and tested.

[2] = test system: soybean T1 plants; test: Tolerance of transgenic soybean T1 plants to isoxaflutole; format: in vivo; conditions: isoxaflutole 140 and 280 g ai/ha, 7 DAT, compared to control vector and wild-type
From the text: as §1
In order to further verify the tolerance effect of HPPD (F372A) on other HPPD inhibitors, the soybean T1 plants into which the AsHPPDm-F372A-02 nucleotide sequence was introduced, soybean T1 plants into which the ZmHPPDm-F372A-02 nucleotide sequence was introduced, soybean T1 plants into which the PfHPPDm-F372A-02 nucleotide sequence was introduced, soybean T1 plants into which the AsHPPDm-F372A-A110 nucleotide sequence was introduced, soybean T1 plants into which the control vector DBN11375NN was introduced in Example 8, and the wild-type soybean plants (V3-V4 at seedling stage) were sprayed as follows to detect the herbicide tolerance of each soybean plants, (1) 140 g ai/ha (2-fold field concentration, 2 ×) isoxaflutole; (2) 280 g ai/ha (4-fold field concentration, 4 ×) isoxaflutole; (3) 210 g ai/ha (2-fold field concentration, 2 ×) mesotrione; (4) 420 g ai/ha (4-fold field concentration, 4 ×) mesotrione. According to the method in point 6 of Example 1, after 7 days of spraying (7 DAT), the damage degree of each plant by the herbicide was statistically analyzed, and the scoring and resistance evaluation were carried out accordingly. […]

Molecule	tolerance to topramezone, in words [1]	tolerance to isoxaflutole, in words [2]
B1	higher tolerance	different degrees of tolerance
B2	higher tolerance	different degrees of tolerance
B3	higher tolerance	different degrees of tolerance
B4	higher tolerance	different degrees of tolerance
